Experimental findings from the supplement of paper PMC9112550, “Optimization of the antimicrobial peptide Bac7 by deep mutational scanning” (BMC Biology, 2022) are described below.
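Further: peptides expressed intracellularly from a pBAD plasmid library in pooled LB shake-flask culture, induced with 0.3% L-arabinose, DNA abundance read by NGS, three biological replicates, DESeq2 with apeglm shrinkage.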

This data set deals with Escherichia coli TOP10. Nature of the data set: shrunken log2 fold change of peptide-encoding DNA abundance (4.5 h post-induction vs induction); higher = less antimicrobial activity (less host growth inhibition). The following applies: time post-induction: 4.5 h; library: site-saturation at positions 5, 18, 19, 20.
Regarding RRIRKRPPRLPRPRPRPYFKPRP, the “shrunken log2 fold change” value is -0.382.

For RRIRVRPPRLPRPRPRPPGVPRP, the “shrunken log2 fold change” value turned out to be 0.216.

On to RRIRARPPRLPRPRPRPLLWPRP, for which the “shrunken log2 fold change” value stood at 1.94.

Take RRIRKRPPRLPRPRPRPDWVPRP: the “shrunken log2 fold change” value stood at 0.0285.

For the sequence RRIRFRPPRLPRPRPRPNQLPRP, the “shrunken log2 fold change” value is -1.2.

On to RRIRARPPRLPRPRPRPEYFPRP, for which the “shrunken log2 fold change” value was 0.188.

In the case of RRIRYRPPRLPRPRPRPSKKPRP, the “shrunken log2 fold change” value was -0.0925.

Consider RRIRGRPPRLPRPRPRPIGCPRP, for which the “shrunken log2 fold change” value worked out at 0.0147.

For RRIRARPPRLPRPRPRPMAPPRP, the “shrunken log2 fold change” value came out at 0.0991.

On to RRIRMRPPRLPRPRPRPSGLPRP, for which the “shrunken log2 fold change” value is 0.0901.

For RRIRQRPPRLPRPRPRPNMQPRP, the “shrunken log2 fold change” value was -0.619.

Take RRIRCRPPRLPRPRPRPGTQPRP: the “shrunken log2 fold change” value turned out to be 0.00157.

As to RRIRIRPPRLPRPRPRPAAMPRP, the “shrunken log2 fold change” value turned out to be 0.391.

Turning to RRIRIRPPRLPRPRPRPNNMPRP, the “shrunken log2 fold change” value was -0.959.

As for RRIRPRPPRLPRPRPRPIRYPRP, the “shrunken log2 fold change” value is 0.00275.

As for RRIRIRPPRLPRPRPRPMGKPRP, the “shrunken log2 fold change” value is -0.0139.

With RRIRYRPPRLPRPRPRPCLDPRP, the “shrunken log2 fold change” value is -0.125.

On to RRIRCRPPRLPRPRPRPGTCPRP, for which the “shrunken log2 fold change” value is -0.143.

For RRIRNRPPRLPRPRPRPNFVPRP, the “shrunken log2 fold change” value is -0.317.

RRIRIRPPRLPRPRPRPKALPRP: the “shrunken log2 fold change” value is -0.0211.

RRIRRRPPRLPRPRPRPWAMPRP: the “shrunken log2 fold change” value was -0.136.

For RRIRGRPPRLPRPRPRPAGYPRP, the “shrunken log2 fold change” value is 0.164.

Turning to RRIRCRPPRLPRPRPRPSKIPRP, the “shrunken log2 fold change” value was -0.597.

On to RRIRDRPPRLPRPRPRPVCKPRP, for which the “shrunken log2 fold change” value was -0.0246.

As for RRIRIRPPRLPRPRPRPWAQPRP, the “shrunken log2 fold change” value came to 0.0697.

As for RRIRQRPPRLPRPRPRPIDWPRP, the “shrunken log2 fold change” value is 1.59e-05.

As to RRIRQRPPRLPRPRPRPHKGPRP, the “shrunken log2 fold change” value is -0.214.

With RRIRNRPPRLPRPRPRPNRRPRP, the “shrunken log2 fold change” value is -0.133.

For the sequence RRIRMRPPRLPRPRPRPFYLPRP, the “shrunken log2 fold change” value is -0.191.

On to RRIRPRPPRLPRPRPRPTPRPRP, for which the “shrunken log2 fold change” value came to 0.769.

As to RRIRKRPPRLPRPRPRPVTLPRP, the “shrunken log2 fold change” value came out at 0.163.

As for RRIRFRPPRLPRPRPRPYIFPRP, the “shrunken log2 fold change” value is -0.829.

Regarding RRIRFRPPRLPRPRPRPPSVPRP, the “shrunken log2 fold change” value came out at 0.08.

Turning to RRIRTRPPRLPRPRPRPYWWPRP, the “shrunken log2 fold change” value is -0.554.

RRIRGRPPRLPRPRPRPQVIPRP: the “shrunken log2 fold change” value was -0.0421.

For the sequence RRIRERPPRLPRPRPRPLLGPRP, the “shrunken log2 fold change” value was -0.144.

With RRIRARPPRLPRPRPRPQYAPRP, the “shrunken log2 fold change” value turned out to be 0.0596.

With RRIRDRPPRLPRPRPRPCYPPRP, the “shrunken log2 fold change” value is -0.0894.

For the sequence RRIRDRPPRLPRPRPRPSRQPRP, the “shrunken log2 fold change” value was -0.12.

RRIRGRPPRLPRPRPRPNTNPRP: the “shrunken log2 fold change” value came out at 0.256.

For the sequence RRIRQRPPRLPRPRPRPECLPRP, the “shrunken log2 fold change” value was -0.21.

For the sequence RRIRWRPPRLPRPRPRPQDIPRP, the “shrunken log2 fold change” value was -0.352.

On to RRIRARPPRLPRPRPRPMKGPRP, for which the “shrunken log2 fold change” value is -0.132.

RRIRYRPPRLPRPRPRPNACPRP: the “shrunken log2 fold change” value is -0.047.

RRIRERPPRLPRPRPRPAGGPRP: the “shrunken log2 fold change” value was found to be 0.2.

In the case of RRIRCRPPRLPRPRPRPNLIPRP, the “shrunken log2 fold change” value was -0.872.

As for RRIRLRPPRLPRPRPRPHGNPRP, the “shrunken log2 fold change” value was -0.186.

On to RRIRMRPPRLPRPRPRPRFDPRP, for which the “shrunken log2 fold change” value was 0.364.

Consider RRIRGRPPRLPRPRPRPDQMPRP, for which the “shrunken log2 fold change” value is 0.633.

RRIRPRPPRLPRPRPRPLITPRP: the “shrunken log2 fold change” value was -0.357.

For RRIRWRPPRLPRPRPRPFHNPRP, the “shrunken log2 fold change” value is -0.392.

As for RRIRKRPPRLPRPRPRPMIAPRP, the “shrunken log2 fold change” value was determined as 0.509.

For RRIRDRPPRLPRPRPRPTPRPRP, the “shrunken log2 fold change” value turned out to be 0.792.

For RRIRIRPPRLPRPRPRPPPDPRP, the “shrunken log2 fold change” value is 0.654.

With RRIRVRPPRLPRPRPRPSYCPRP, the “shrunken log2 fold change” value is -0.18.

On to RRIRNRPPRLPRPRPRPRDHPRP, for which the “shrunken log2 fold change” value was -0.219.

As for RRIRSRPPRLPRPRPRPKRLPRP, the “shrunken log2 fold change” value stood at 0.297.

For RRIRYRPPRLPRPRPRPHFHPRP, the “shrunken log2 fold change” value is -0.489.

As to RRIRVRPPRLPRPRPRPWPCPRP, the “shrunken log2 fold change” value is -0.22.

As to RRIRVRPPRLPRPRPRPNQWPRP, the “shrunken log2 fold change” value was -0.264.

For RRIRYRPPRLPRPRPRPQMTPRP, the “shrunken log2 fold change” value was 0.0454.

Turning to RRIRDRPPRLPRPRPRPMCVPRP, the “shrunken log2 fold change” value was 0.101.

For RRIRHRPPRLPRPRPRPFYQPRP, the “shrunken log2 fold change” value is -0.389.

Take RRIRLRPPRLPRPRPRPIMSPRP: the “shrunken log2 fold change” value is -0.2.

As for RRIRLRPPRLPRPRPRPADLPRP, the “shrunken log2 fold change” value was 0.0231.

Take RRIRARPPRLPRPRPRPVWAPRP: the “shrunken log2 fold change” value stood at 0.305.

As to RRIRKRPPRLPRPRPRPAKGPRP, the “shrunken log2 fold change” value stood at 0.136.

In the case of RRIRLRPPRLPRPRPRPRKAPRP, the “shrunken log2 fold change” value worked out at 0.022.

On to RRIRQRPPRLPRPRPRPPSHPRP, for which the “shrunken log2 fold change” value was determined as 0.0871.

In the case of RRIRRRPPRLPRPRPRPPPGPRP, the “shrunken log2 fold change” value was found to be 1.05.

Turning to RRIRTRPPRLPRPRPRPRQDPRP, the “shrunken log2 fold change” value is -0.144.

On to RRIRDRPPRLPRPRPRPMFPPRP, for which the “shrunken log2 fold change” value was -0.257.

With RRIRTRPPRLPRPRPRPLSQPRP, the “shrunken log2 fold change” value was -0.0906.

Take RRIRRRPPRLPRPRPRPKHMPRP: the “shrunken log2 fold change” value came out at 0.932.

Consider RRIRSRPPRLPRPRPRPKNGPRP, for which the “shrunken log2 fold change” value is -0.105.

Turning to RRIRKRPPRLPRPRPRPSKGPRP, the “shrunken log2 fold change” value is -0.0301.

As to RRIRGRPPRLPRPRPRPHAKPRP, the “shrunken log2 fold change” value was 0.126.

As to RRIRTRPPRLPRPRPRPLGRPRP, the “shrunken log2 fold change” value turned out to be 2.94.

Consider RRIRARPPRLPRPRPRPFKNPRP, for which the “shrunken log2 fold change” value is -0.193.

As to RRIRERPPRLPRPRPRPCGIPRP, the “shrunken log2 fold change” value stood at 0.00383.

On to RRIRVRPPRLPRPRPRPENFPRP, for which the “shrunken log2 fold change” value turned out to be 0.0199.

Take RRIRLRPPRLPRPRPRPMKDPRP: the “shrunken log2 fold change” value is -0.111.

Regarding RRIRCRPPRLPRPRPRPCMRPRP, the “shrunken log2 fold change” value turned out to be 0.0312.

Consider RRIRFRPPRLPRPRPRPFHYPRP, for which the “shrunken log2 fold change” value worked out at 0.0611.

Regarding RRIRTRPPRLPRPRPRPTQRPRP, the “shrunken log2 fold change” value is 0.11.

For RRIRKRPPRLPRPRPRPPHPPRP, the “shrunken log2 fold change” value stood at 0.672.

For the sequence RRIRPRPPRLPRPRPRPTHIPRP, the “shrunken log2 fold change” value is 0.0811.

In the case of RRIRVRPPRLPRPRPRPQVYPRP, the “shrunken log2 fold change” value is -0.0131.

In the case of RRIRSRPPRLPRPRPRPCEWPRP, the “shrunken log2 fold change” value stood at 0.0266.

As for RRIRCRPPRLPRPRPRPCEVPRP, the “shrunken log2 fold change” value was -0.251.

Take RRIRGRPPRLPRPRPRPARNPRP: the “shrunken log2 fold change” value amounted to 0.51.

For the sequence RRIRVRPPRLPRPRPRPLWLPRP, the “shrunken log2 fold change” value is -0.00434.

In the case of RRIRVRPPRLPRPRPRPVKNPRP, the “shrunken log2 fold change” value was found to be 0.118.

For RRIRHRPPRLPRPRPRPRTVPRP, the “shrunken log2 fold change” value is 0.126.

Regarding RRIRARPPRLPRPRPRPMILPRP, the “shrunken log2 fold change” value turned out to be 0.0109.

Take RRIRKRPPRLPRPRPRPPKQPRP: the “shrunken log2 fold change” value stood at 0.202.

For RRIRYRPPRLPRPRPRPMAHPRP, the “shrunken log2 fold change” value is -0.0234.

On to RRIRNRPPRLPRPRPRPFCDPRP, for which the “shrunken log2 fold change” value was -0.133.

On to RRIRNRPPRLPRPRPRPPKAPRP, for which the “shrunken log2 fold change” value stood at 0.00248.

With RRIRHRPPRLPRPRPRPAMEPRP, the “shrunken log2 fold change” value was 0.0691.

For the sequence RRIRDRPPRLPRPRPRPAWEPRP, the “shrunken log2 fold change” value was found to be 1.07.

Take RRIRERPPRLPRPRPRPRRLPRP: the “shrunken log2 fold change” value is 0.138.

Consider RRIRWRPPRLPRPRPRPNFKPRP, for which the “shrunken log2 fold change” value is -0.264.

RRIRFRPPRLPRPRPRPTFQPRP: the “shrunken log2 fold change” value is -0.156.

Consider RRIRPRPPRLPRPRPRPLYDPRP, for which the “shrunken log2 fold change” value amounted to 2.73.

RRIRARPPRLPRPRPRPTSDPRP: the “shrunken log2 fold change” value came to 0.954.

Turning to RRIRLRPPRLPRPRPRPNKQPRP, the “shrunken log2 fold change” value was -0.0903.

In the case of RRIRPRPPRLPRPRPRPQQHPRP, the “shrunken log2 fold change” value was -0.0726.

As for RRIRIRPPRLPRPRPRPGNYPRP, the “shrunken log2 fold change” value is -0.261.

RRIRRRPPRLPRPRPRPYRPPRP: the “shrunken log2 fold change” value was -0.0416.

Turning to RRIRVRPPRLPRPRPRPMGNPRP, the “shrunken log2 fold change” value was -0.0915.

As for RRIRQRPPRLPRPRPRPSPFPRP, the “shrunken log2 fold change” value was 0.0122.

With RRIRQRPPRLPRPRPRPQPYPRP, the “shrunken log2 fold change” value was -0.0274.

With RRIRFRPPRLPRPRPRPLPGPRP, the “shrunken log2 fold change” value was 0.403.

For the sequence RRIRRRPPRLPRPRPRPIATPRP, the “shrunken log2 fold change” value is 0.0769.

Consider RRIRYRPPRLPRPRPRPLSTPRP, for which the “shrunken log2 fold change” value was -0.29.

For RRIRWRPPRLPRPRPRPWQCPRP, the “shrunken log2 fold change” value was -0.233.

As to RRIRKRPPRLPRPRPRPNFPPRP, the “shrunken log2 fold change” value came out at 0.117.

For RRIRNRPPRLPRPRPRPMKDPRP, the “shrunken log2 fold change” value worked out at 0.145.

Consider RRIRGRPPRLPRPRPRPNIQPRP, for which the “shrunken log2 fold change” value was 0.398.

Take RRIRNRPPRLPRPRPRPHVEPRP: the “shrunken log2 fold change” value was -0.326.

RRIRVRPPRLPRPRPRPTKSPRP: the “shrunken log2 fold change” value was -0.00156.

For the sequence RRIRPRPPRLPRPRPRPFMTPRP, the “shrunken log2 fold change” value is -0.511.

As to RRIRFRPPRLPRPRPRPRNRPRP, the “shrunken log2 fold change” value was -0.182.

With RRIRWRPPRLPRPRPRPHIKPRP, the “shrunken log2 fold change” value is -0.243.
